Where a chain is given by its changes, count along the chain named.

Results on 21 molecules are retold here after patent US20230340128A1.

The chains are these.
B1: XENP31701 (bispecific antibody, part only; not given: anti-CD3 scFv-Fc arm, constant regions, V domains shown, not shown: another chain or arm of the molecule; a dimerising Fc or GST; small tags and cut ends)
VH: QVQLVQSGAEVKKPGASVKVSCKASGYTFTSYWMHWVRQAPGQGLEWMGMIHPNSDNTIYYEKFQGRVTMTVDKSISTAYMELSRLRSDDTAVYYCAIIITPVVPKFDYWGQGTLVTVSS
VL: DIVMTQSPDSLAVSLGERATINCKASHDVGTSVAWYQQKPGQSPKLLIYWASTRHTGVPDRFTGSGSGTDFTLTISSLQAEDVAVYFCQQYSSYPLTFGAGTKLEIK
B2: XENP32569 (bispecific antibody, part only; not given: anti-CD3 scFv-Fc arm, constant regions, V domains shown, not shown: another chain or arm of the molecule; a dimerising Fc or GST; small tags and cut ends)
VH: B1 VH with N54Q
VL: B1 VL with D28S
B3: XENP32555 (bispecific antibody, part only; not given: anti-CD3 scFv-Fc arm, constant regions, V domains shown, not shown: another chain or arm of the molecule; a dimerising Fc or GST; small tags and cut ends)
VH: B1 VH with D56G
VL: B1 VL
B4: XENP32564 (bispecific antibody, part only; not given: anti-CD3 scFv-Fc arm, constant regions, V domains shown, not shown: another chain or arm of the molecule; a dimerising Fc or GST; small tags and cut ends)
VH: B1 VH
VL: B1 VL with V33L
B5: XENP32558 (bispecific antibody, part only; not given: anti-CD3 scFv-Fc arm, constant regions, V domains shown, not shown: another chain or arm of the molecule; a dimerising Fc or GST; small tags and cut ends)
VH: B1 VH with K106R
VL: B1 VL
B6: XENP32554 (bispecific antibody, part only; not given: anti-CD3 scFv-Fc arm, constant regions, V domains shown, not shown: another chain or arm of the molecule; a dimerising Fc or GST)
VH: B1 VH with N54Q
VL: B1 VL
B7: XENP32557 (bispecific antibody, part only; not given: anti-CD3 scFv-Fc arm, constant regions, V domains shown, not shown: another chain or arm of the molecule; a dimerising Fc or GST; small tags and cut ends)
VH: B1 VH with T101S
VL: B1 VL
B8: XENP32570 (bispecific antibody, part only; not given: anti-CD3 scFv-Fc arm, constant regions, V domains shown, not shown: another chain or arm of the molecule; a dimerising Fc or GST; small tags and cut ends)
VH: B1 VH with D56G
VL: B1 VL with D28S
B9: XENP32550 (bispecific antibody, part only; not given: anti-CD3 scFv-Fc arm, constant regions, V domains shown, not shown: another chain or arm of the molecule; a dimerising Fc or GST; small tags and cut ends)
VH: B1 VH with S31G
VL: B1 VL
B10: XENP32568 (bispecific antibody, part only; not given: anti-CD3 scFv-Fc arm, constant regions, V domains shown, not shown: another chain or arm of the molecule; a dimerising Fc or GST; small tags and cut ends)
VH: B1 VH
VL: B1 VL with Y94T
B11: XENP32566 (bispecific antibody, part only; not given: anti-CD3 scFv-Fc arm, constant regions, V domains shown, not shown: another chain or arm of the molecule; a dimerising Fc or GST; small tags and cut ends)
VH: B1 VH
VL: B1 VL with T56S
B12: XENP32565 (bispecific antibody, part only; not given: anti-CD3 scFv-Fc arm, constant regions, V domains shown, not shown: another chain or arm of the molecule; a dimerising Fc or GST; small tags and cut ends)
VH: B1 VH
VL: B1 VL with H55E
B13: XENP32560 (bispecific antibody, part only; not given: anti-CD3 scFv-Fc arm, constant regions, V domains shown, not shown: another chain or arm of the molecule; a dimerising Fc or GST; small tags and cut ends)
VH: B1 VH
VL: B1 VL with H27Q
B14: XENP32556 (bispecific antibody, part only; not given: anti-CD3 scFv-Fc arm, constant regions, V domains shown, not shown: another chain or arm of the molecule; a dimerising Fc or GST; small tags and cut ends)
VH: B1 VH with I98R
VL: B1 VL
B15: XENP32553 (bispecific antibody, part only; not given: anti-CD3 scFv-Fc arm, constant regions, V domains shown, not shown: another chain or arm of the molecule; a dimerising Fc or GST; small tags and cut ends)
VH: B1 VH with H52N
VL: B1 VL
B16: XENP32559 (bispecific antibody, part only; not given: anti-CD3 scFv-Fc arm, constant regions, V domains shown, not shown: another chain or arm of the molecule; a dimerising Fc or GST; small tags and cut ends)
VH: B1 VH
VL: B1 VL with A25S
B17: XENP32551 (bispecific antibody, part only; not given: anti-CD3 scFv-Fc arm, constant regions, V domains shown, not shown: another chain or arm of the molecule; a dimerising Fc or GST; small tags and cut ends)
VH: B1 VH with W33Y
VL: B1 VL
B18: XENP32938 (bispecific antibody, part only; not given: anti-CD3 scFv-Fc arm, constant regions, V domains shown, not shown: another chain or arm of the molecule; a dimerising Fc or GST; small tags and cut ends)
VH: B1 VH with E62Y
VL: B1 VL with S92Y
B19: XENP32943 (bispecific antibody, part only; not given: anti-CD3 scFv-Fc arm, constant regions, V domains shown, not shown: another chain or arm of the molecule; a dimerising Fc or GST; small tags and cut ends)
VH: B1 VH with M50W
VL: B1 VL with Y94I
B20: XENP32939 (bispecific antibody, part only; not given: anti-CD3 scFv-Fc arm, constant regions, V domains shown, not shown: another chain or arm of the molecule; a dimerising Fc or GST; small tags and cut ends)
VH: B1 VH with M50W
VL: B1 VL with T31Q
B21: XENP32940 (bispecific antibody, part only; not given: anti-CD3 scFv-Fc arm, constant regions, V domains shown, not shown: another chain or arm of the molecule; a dimerising Fc or GST; small tags and cut ends)
VH: B1 VH with M50W
VL: B1 VL with Y94F

For the first test, the target named is cyno MSLN (Macaca fascicularis). Nature of the test: BLI (Octet), bsAb in 1+1 Fab-scFv-Fc format.
On to B1, for which the equilibrium dissociation constant (Kd) turned out to be 0.0938 nM, the Response is 0.737, the off-rate constant (koff) is 5.74e-05 s⁻¹ and the kon came out at 612000 M⁻¹ s⁻¹.

Take B2: the dissociation constant Kd turned out to be 0.189 nM, the Response amounted to 0.867, the off-rate (koff) stood at 0.000125 s⁻¹ and the association rate constant (kon) turned out to be 660000 M⁻¹ s⁻¹.

B3 displayed a Kd of 0.603 nM, a Response of 1.11, a koff of 0.000342 s⁻¹ and a kon of 566000 M⁻¹ s⁻¹.

B4 yielded a dissociation constant Kd of 0.0297 nM, a Response of 0.849, an off-rate (koff) of 2.01e-05 s⁻¹ and an on-rate (kon) of 676000 M⁻¹ s⁻¹.

B5 registered a Kd of 0.7 nM, a Response of 1.11, an off-rate (koff) of 0.000166 s⁻¹ and a kon of 238000 M⁻¹ s⁻¹.

Molecule B6 showed an equilibrium dissociation constant (Kd) of 0.414 nM, a Response of 1.03, an off-rate constant (koff) of 0.00023 s⁻¹ and an on-rate constant (kon) of 555000 M⁻¹ s⁻¹.

Molecule B7 yielded an equilibrium dissociation constant (Kd) of 0.62 nM, a Response of 1.09, a koff of 0.000321 s⁻¹ and a kon of 518000 M⁻¹ s⁻¹.

As for B8, the dissociation constant Kd was determined as 0.155 nM, the Response turned out to be 0.95, the koff came out at 0.000105 s⁻¹ and the association rate constant (kon) came out at 676000 M⁻¹ s⁻¹.

The molecule B9 came in with a Kd of 0.254 nM, a Response of 0.891, a koff of 0.000146 s⁻¹ and an association rate constant (kon) of 576000 M⁻¹ s⁻¹.

The molecule B10 had a Response of 0.0728.

B11 returned a Kd of 0.163 nM, a Response of 0.941, a koff of 0.0001 s⁻¹ and an on-rate (kon) of 616000 M⁻¹ s⁻¹.

Molecule B12 had a dissociation constant (Kd) of 0.255 nM, a Response of 1, a koff of 0.000151 s⁻¹ and an on-rate (kon) of 592000 M⁻¹ s⁻¹.

The molecule B13 displayed a Kd of 1.2 nM, a Response of 0.948, a koff of 0.000762 s⁻¹ and an on-rate constant (kon) of 634000 M⁻¹ s⁻¹.

Molecule B14 registered a Kd of 0.395 nM, a Response of 1.07, a koff of 0.000157 s⁻¹ and a kon of 399000 M⁻¹ s⁻¹.

B15 yielded a Kd of 0.585 nM, a Response of 1.06, a koff of 0.000337 s⁻¹ and a kon of 575000 M⁻¹ s⁻¹.

For B16, the Kd is 0.223 nM, the Response came out at 1.04, the koff is 0.000128 s⁻¹ and the kon stood at 575000 M⁻¹ s⁻¹.

Consider B17, for which the Kd turned out to be 1.66 nM, the Response stood at 1.1, the off-rate constant (koff) was determined as 0.000822 s⁻¹ and the kon was determined as 495000 M⁻¹ s⁻¹.

For another test, the target named is human mesothelin (MSLN) (human) (UniProt Q13421). As to the kind of experiment: BLI (Octet), bsAb in 1+1 Fab-scFv-Fc format.
In turn, B1 had a Kd of 0.0805 nM, a Response of 0.86, an off-rate constant (koff) of 4.69e-05 s⁻¹ and a kon of 583000 M⁻¹ s⁻¹.

B2 registered a Kd of 0.135 nM, a Response of 0.978, a koff of 9.35e-05 s⁻¹ and an on-rate constant (kon) of 693000 M⁻¹ s⁻¹.

Take B3: the dissociation constant (Kd) is 0.684 nM, the Response stood at 1.23, the off-rate (koff) was 0.000375 s⁻¹ and the kon amounted to 549000 M⁻¹ s⁻¹.

Regarding B4, the Kd was determined as 0.0861 nM, the Response amounted to 0.952, the koff was 5.68e-05 s⁻¹ and the association rate constant (kon) amounted to 660000 M⁻¹ s⁻¹.

Molecule B5 gave a Kd of 0.795 nM, a Response of 1.17, an off-rate constant (koff) of 0.000198 s⁻¹ and an on-rate constant (kon) of 249000 M⁻¹ s⁻¹.

Molecule B6 yielded a Kd of 0.483 nM, a Response of 1.13, a dissociation rate constant (koff) of 0.000268 s⁻¹ and an on-rate (kon) of 555000 M⁻¹ s⁻¹.

Molecule B7 yielded a Kd of 0.721 nM, a Response of 1.15, a koff of 0.000374 s⁻¹ and an on-rate constant (kon) of 519000 M⁻¹ s⁻¹.

B8 yielded a Kd of 0.103 nM, a Response of 0.981, a koff of 7.35e-05 s⁻¹ and a kon of 717000 M⁻¹ s⁻¹.

In turn, B9 returned a Kd of 0.601 nM, a Response of 1.02, a koff of 0.000314 s⁻¹ and an on-rate (kon) of 522000 M⁻¹ s⁻¹.

The molecule B10 yielded a Response of 0.107.

As for B11, the Kd came to 0.18 nM, the Response came out at 1.05, the off-rate (koff) was 0.000113 s⁻¹ and the on-rate (kon) stood at 627000 M⁻¹ s⁻¹.

The molecule B12 had a Kd of 0.286 nM, a Response of 1.11, a dissociation rate constant (koff) of 0.000169 s⁻¹ and an association rate constant (kon) of 590000 M⁻¹ s⁻¹.

For B13, the Kd turned out to be 0.633 nM, the Response came out at 1.03, the koff worked out at 0.000383 s⁻¹ and the association rate constant (kon) was 605000 M⁻¹ s⁻¹.

For the molecule B14, the equilibrium dissociation constant (Kd) came to 0.469 nM, the Response was 1.18, the koff was 0.000199 s⁻¹ and the kon stood at 425000 M⁻¹ s⁻¹.

With B15, the dissociation constant Kd was 0.687 nM, the Response was found to be 1.16, the off-rate (koff) stood at 0.00037 s⁻¹ and the kon amounted to 539000 M⁻¹ s⁻¹.

In turn, B16 registered a Kd of 0.283 nM, a Response of 1.11, an off-rate constant (koff) of 0.000161 s⁻¹ and an on-rate constant (kon) of 569000 M⁻¹ s⁻¹.

Take B17: the Kd was determined as 1.6 nM, the Response was 1.19, the off-rate (koff) was determined as 0.000773 s⁻¹ and the kon stood at 483000 M⁻¹ s⁻¹.

The next test shares this target. Nature of the test: BLI (Octet), multiple concentrations, bsAb in 1+1 Fab-scFv-Fc format.
As to B18, the dissociation constant (Kd) amounted to 16.2 nM, the Response was 0.169, the off-rate (koff) turned out to be 0.0103 s⁻¹ and the kon amounted to 635000 M⁻¹ s⁻¹.

The molecule B19 showed a Response of 0.0022.

In the case of B20, the Kd was determined as 90.4 nM, the Response turned out to be 0.202, the koff stood at 0.0383 s⁻¹ and the kon was 424000 M⁻¹ s⁻¹.

On to B21, for which the Kd is 246 nM, the Response turned out to be 0.136, the off-rate constant (koff) worked out at 0.0816 s⁻¹ and the kon was 332000 M⁻¹ s⁻¹.
